Source: the supplement of paper PMC9170038

What follows are sequences tested on K4 kissing-loop RNA reporter (assay: apparent KD of K4 kissing-loop reporter; higher = weaker reporter binding). Details: Eterna round: R107; input ligand: none.
Method: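 RNA-MaP round R107: designed RNA switches with theophylline, tryptophan, arginine or FMN aptamers are transcribed on-chip within common flanks. They are titrated with a labelled K4 kissing-loop RNA reporter in RNA-MaP buffer (100 mM Tris pH 7.5, 80 mM KCl, 4 mM MgCl2), without ligand or with the indicated ligand. Median apparent KD per design.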
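Note: bound reporter read as fluorescence of individual clusters on recovered sequencing chips by microscopy, with normalized cluster intensities fitted with a binding model.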

| Sequence | apparent KD of K4 kissing-loop reporter [nM] |
| --- | --- |
| GUAGGAUGAGGAGGAGGAAGAAAUACUGAAGGAGCGCAAAGAAAUGCAGGUAGGUCGCGGUAAAGAAGUAUAGUGAUGUUAUAUA [SSArgA.C] | 406 |
| UCAUAUACCAGAAGGAGCGUGCAGGACGAAUUAAUCAUCGACCUUAGUGAUGUUAAGGACGCACAGGUAGGUCGCUGGUAUAUGA [Arg B SS t4] | 479 |
| UGCAUGCUUGUAGUGAUGUUACAAGAUGAUACCAGUGCUUUUUUGCACCCUUGGCAGCGUCAUAGUGCAUGCACGUCGAAAGACG | 211 |
| AAACGUUGGUCUGAUACCAGCUUGAUCGGUAAACGAUCUACUGGAGUGAUGUUCCUAAAUAGCCCUUGGCAGCAGACCGACGAAA [MAT - Same State Theophlline B - Mod of Eli - D7] | 173 |
| UAUCUUUGCUGAAGGAGCGAGCAUGUUGGAGUGAUGUUCCGAGCGAGUGAUGUUCGCAUAGCUCAGGUAGGUCGCAGUGGGAGGA [Same State Arginie B GF 16] | 147 |
| UGAUACCAGACGGCCGCCACUGGUGCAGUCAAAGACUGCUAAAACCAAAUCGUGGAGUGAUGUUCCAGGACCGGGUCUGGUAUCU [TrypBX 20 #SwitchBubble #Palindromic #StaticStem] | 452 |
| CACGGUUAUACGGCCGCCACUGAUUGCGUUGCAGUGAUGUUGCACGCGUCCGACUACACCUCAUUCAGGACCGGGUAGACAUGCA [theeternabot_exclusion_KL_Trp_B_11] | 230 |
| CUGGUGCUGAUGCGGUGGCCGGUGGUCGUGCGAGGACCGGUACGGCCGCCACUCGCAUGAGUGAUGUUCAUGUGUCGUCGUCGUC [whbob_EX_Tryp_A_t1] | 181 |
| GUAAGAUGAGGAGGAGGAUGAAUUACUGAAGGAGCGCAUAUAAAUGCAGGUAGGUCGCGGUAAAGAAGUAUAGUGAUGUUAUAUA [#20 K4 Arginine A Same State] | 464 |
| GCAGUGAUGUUGCGCAGGUACAGUGGAGUGCGAGGACCGGUACGGCCGCCACUCGUACAGAACUAGCUAAUGUAUGGAUAGGUGA [#11 K4 Tryptophan A Same State] | 368 |
| AAAAUAAACCAGUGAUGUUGGUGUCCAGAUACCAGCGAUAAUCAUCGCCCUUGGCAGCUGCGGACGUACAAAAUAAGUACGUCCU [MatMod 12 - Jieux - Same State - Theophylline A] | 707 |
| UUUCGUCUCUGAGGAUAUCAGAAUAGAGUGAUGUUCUAUCAAAGCCCAGUGAUGUUGGAUGCUAUCUGAGAAGGCAGUGGGCGAG [Same State FMN B GF 11] | 249 |
| AAGUCACAGGCAGGAUAUGCUUAGUAAUAAGGCCAUAUAUACGUAUAGAGUGAUGUUUUGUACCAGGCAGAAGGGCUACAUCCGU [FMN B Excl V3 (+2GCs)] | 882 |
| AUUUUGGUUUAGAGUGAUGUUCCUUGUAUUCGAGGACCGGUACGGCCGCCACUCGAAUAGAAAAGAAAAGAAAUGUUUGAUUUUU [BDazzled - #7 SS Tryptophan A] | 556 |
| ACGAUCAUGUCGGCCGCCACUGAGAGUAGUGAUGUUACUUUUAUGUUUUAGUUAUAAUAUUUGAACAGGACCGGGACAUGUUCGU [JR_ExcTryptoB_Sub023] | 85.3 |
| UGAUAGGACAGAAGGAGCGGUAGUGAUGUUGCCAAAAGAAUAAGGUGUCAAAAGACACCCUGCCAGGUAGGUCGCUGUCCUAUCU | 144 |
| AAAACGCUGUGAAUAACACAGCGAAAUUCGCGAGGACCGGUACGGCCGCCACUCGCUAACUGCGAGUGAUGUUCGAUAAUAAAAU [Mat - Mod of OpenEnded 3 - D3] | 170 |
| CAUACGCAUGGAGGAUAUGGGAUUUCUCAUAUUAACCUGUAUCAGGUAUCUCAGUGAUGUUGAGACUCAGAAGGCCAUGUGUAUG [Ex FMN B 25] | 364 |
| ACCAUUUUACCGGCAGUAGUGAUGUUACUCCGAGGACCGGUACGGCCGCCACUCGCGAACGUAGGGUCGCGCACUCAAAGAGUGC | 106 |
| AACAGCAAUGCGGCCGCCACUUCGAGGUCAGUGAUGUUGACGGAAUUAAAUAAAGAUCCCAAGAGGAGGACCGGGCAGUGCUGUU [whbob_SS_Tryp_B_t25] | 499 |
| AAAACUCCGGGUAGUGAUGUUACCUAGGAUACCAGUAUCGCAACAUACCCUUGGCAGCCUCUUCCUGCUGGCGUCGCUUGGCCUA [theeternabot_exclusion_KL_Theo_A_42] | 90.8 |
| UAACCUGUAAACGAUACCAGUUGCAUGGAAACUUGGUACUAGCUAGUGAUGUUAGCAAGCAACCCUUGGCAGCGUCGCCUGACAG [theeternabot_sameState_KL_Theo_B_17] | 395 |

Same assay, conditions: Eterna round: R107; input ligand: theophylline 20 uM

| Sequence | apparent KD of K4 kissing-loop reporter [nM] |
| --- | --- |
| AUAGGAGUGAUGUUCCUUAGUCUCUCCGAUACCAGUAUGGAAACAUACCCUUGGCAGCGGUAGACCGCAGAUUAGGAAACUAGUC [Theophylline A K4 3] | 503 |
| UGUAUGUGUCAGCGAGUGAUGUUCGACGAUACCAGACUCGAUAGAGUCCCUUGGCAGCGUAAUGCAUGCCAAACUGGCACAUACU [#SwitchBubble 13 #K4Early] | 594 |
| GAGAACUCUUACGAUACCAGCCGGAGUGAUGUUCCGCGCUUGGACGUAGUAACCCGCACCGGCCCUUGGCAGCGUGGAUCCUAUG [Bibiinor] | 86.8 |
| UAAGAUAUAAGGGAUACCAGCCAUAAGGAAAGUGUGAUGAGUGAUGUUCUGACAAGCCAAGGCCCUUGGCAGCUUUAAUAGCAUC [Theophylline B Same State; Euphoria Solution] | 263 |
| GUAUCGCUAGGAGGAUAUUUCAAUUCGCCUAUAAUAGGUGAUACGGAGUGAUGUUCCGAUUUACGGAAAGAAGGCCUAGUGAUAC [FMN B 10] | 239 |
| UUCAGUGAUGAUGAACACUGUUGUAUAAACUAGGAUAUGCUGAUAAGCAGAAGGAGUGAUGUUCCGUUCAUCAUCAGAAUUAAAU [KL-XFMN-A4] | 407 |
| GGGCGUUACGGAGUGAUGUUCCGUAGCGAUACCAGCCAUUGCGAUGGCCCUUGGCAGCGCUAUAAGCAUAGAAUUGUAGCGCUUA [Theo A Ex t7b] | 102 |
| UGACAUUGCUCAGAUACCAGACAAGAGGAUCACCCUUGUGCCAAAACGUACUAAAUAAAUGUCCCUUGGCAGCUGAGCAAUGUCU [TheoBX 13] | 77.4 |
| AGAGUUAUGCGAGGAUAUGCAGUUAGUACUCAAAGAGUACUAACAGCAGAGUGAUGUUCUGUGAAAGCAGAAGGUGCAUAACUCA [Omei KL FMN B SS B v7] | 641 |
| UCGUCUGUGUGAGGAUAUCCAAGCGAGCUGCGUAAAGGCGCGGCGUUUGGAGUGAUGUUCCAGGCAGGAGAAGGCGCACGGGCUU [Maleisar] | 470 |
| UGUCAUUGGUCGGCCGCCACUUCAUAAAGAGUGAUGUUCUUAAAGACGGAUCGAAAGAUCUGUCGAAGGACCGGGACCGAUGACU [FiskerMod 8 - Jieux - Same State - Tryptophan B] | 927 |
| UUGGCAGUGAUGUUGCCAGAGCUCACCGAAGGAGCGCGUGAAAACGCAGGUAGGUCGCGGUAGCGGAGUGAUUCUCCGCGAGGGC [Same State Arginine A GF 21] | 80.3 |
| UACUAUAGUGAUGUUAUAGAUAAAACAGAUACCAGUGUUACAUAACACCCUUGGCAGCUGAAAAGGGAAAGUAUAAAUGUGUAUU [AstrosSSTHe-A#1newdesignED] | 125 |
| UGGACCAAGGAGUGAUGUUCCAAAUGUGAUACCAGCCACGAAAGUGGCCCUUGGCAGCACUGCCAGGACGAAAACGUCCGGUCCU [#SwitchBubble 12 #StaticStem #K4Early] | 777 |
| GAUCUAUGUCCCGAUACCAGCUCAGAAGCUAGGGAGUGAUGUUCUCGGAGGUUAUCACUGAGCCCUUGGCAGCGGAACGUGACGA [theeternabot_sameState_KL_Theo_B_26] | 230 |
| AAAAUUGCGGUUUUAAGAUCUUUUUGCUUACGAGGACCGGUACGGCCGCCACUCGAGUCAAGUGAUGUUUGAUUUUCUAUUAUUA [JR_ExcTryptoA_Sub015] | 189 |

| Sequence | apparent KD of K4 kissing-loop reporter [nM] |
| --- | --- |
| UUGGCCGGACGGGAUACCAGUCAAAUCGUGUGCUUGGGAUGUCUAAGAGCCAGUGAUGUUGGCCCUUGGCAGCCCUCCCAGCUUG [Esleaqu] | 102 |
| UAGAUGUUGUAAGAUAUUGAUAGUCGGGAAGGAGCGCUCACAAUAGCAGGUAGGUCGCCCGACAGUGUUAGGAGUGAUGUUCCUU [7.)] | 121 |
| CCCUAAAUAUGCAGUGAUGUUGCAACUGAUACCAGUAUCGAAAGAUACCCUUGGCAGCGGAAAACCGCUACGUAAUUUAAUAGGG [Ex Theophylline A K4 20] | 402 |
| GGGAGCAAAGCUCCCGGAUGCUAUUACCAGGAGGAUAUCUGGAAACAGAGAAGGCCUAAGCCAGUGAUGUUGGUUUCGAGCAUCC | 305 |
| GGUGACAACCAGGAGUGAUGUAUAGAAUAGCGAGGACCGGUACGGCCGCCACUCGUGAAGAGAAAGGAGUGAUGUUCCGUAAUGG [Kazoo C3] | 74.2 |
| GUAGGAUGAGGAGGAGGAAGAAAUACUGAAGGAGCGCAAAGAAAUGCAGGUAGGUCGCGGUAAAGAAGUAUAGUGAUGUUAUAUA [SSArgA.C] | 411 |
| UCAUAUACCAGAAGGAGCGUGCAGGACGAAUUAAUCAUCGACCUUAGUGAUGUUAAGGACGCACAGGUAGGUCGCUGGUAUAUGA [Arg B SS t4] | 484 |
| UGCAUGCUUGUAGUGAUGUUACAAGAUGAUACCAGUGCUUUUUUGCACCCUUGGCAGCGUCAUAGUGCAUGCACGUCGAAAGACG | 320 |
| AAACGUUGGUCUGAUACCAGCUUGAUCGGUAAACGAUCUACUGGAGUGAUGUUCCUAAAUAGCCCUUGGCAGCAGACCGACGAAA [MAT - Same State Theophlline B - Mod of Eli - D7] | 118 |
| UAUCUUUGCUGAAGGAGCGAGCAUGUUGGAGUGAUGUUCCGAGCGAGUGAUGUUCGCAUAGCUCAGGUAGGUCGCAGUGGGAGGA [Same State Arginie B GF 16] | 164 |
| UGAUACCAGACGGCCGCCACUGGUGCAGUCAAAGACUGCUAAAACCAAAUCGUGGAGUGAUGUUCCAGGACCGGGUCUGGUAUCU [TrypBX 20 #SwitchBubble #Palindromic #StaticStem] | 462 |
| CACGGUUAUACGGCCGCCACUGAUUGCGUUGCAGUGAUGUUGCACGCGUCCGACUACACCUCAUUCAGGACCGGGUAGACAUGCA [theeternabot_exclusion_KL_Trp_B_11] | 208 |
| CUGGUGCUGAUGCGGUGGCCGGUGGUCGUGCGAGGACCGGUACGGCCGCCACUCGCAUGAGUGAUGUUCAUGUGUCGUCGUCGUC [whbob_EX_Tryp_A_t1] | 176 |
| GUAAGAUGAGGAGGAGGAUGAAUUACUGAAGGAGCGCAUAUAAAUGCAGGUAGGUCGCGGUAAAGAAGUAUAGUGAUGUUAUAUA [#20 K4 Arginine A Same State] | 459 |
| GCAGUGAUGUUGCGCAGGUACAGUGGAGUGCGAGGACCGGUACGGCCGCCACUCGUACAGAACUAGCUAAUGUAUGGAUAGGUGA [#11 K4 Tryptophan A Same State] | 470 |
| AAAAUAAACCAGUGAUGUUGGUGUCCAGAUACCAGCGAUAAUCAUCGCCCUUGGCAGCUGCGGACGUACAAAAUAAGUACGUCCU [MatMod 12 - Jieux - Same State - Theophylline A] | 399 |
